Results as given in a protein production outcome set (Wang et al. 2014).

Test: label from the status in PepcDB records

For “MFGRDGRLKESRVQKPERQQRLFGLSTPLRSAVIPPLSAARWLLVLIVAAGVYFFHGFLFPVLAALVIAFASWPLYQRLLAGVGGNRTIAATLAILFILAFLVIPIALAGTYAINEVREWVGWAIETNRHGAVTPHWIATMPVVGDWLNEQWTTNFGHPGGIGELIQLISGANIGSIYRGALAAGGSAFGLLLTLLFMMIALFFAYRDGEHFAGQVDRLGERILPTRWERISRVVPATISSTVTGMTVIAIGEGLVLGIAYWLAGVPSPVTLGALTGVMALIPGGAPLSFTLVSIYLAASGSPMAGLALFLWGAVELFIVDKTLRPKLVGGPIKLPFLPTFFGLIGGVKTMGFLGLFIGPVLMALLVAIWREWLREVELVDELAAGSAAEIEATPQIEVLPEPGVAKKARA”, the protein production was “failed”.
In the case of “MNSNDQPGLDLLGDPIVLTQRLVDIPSPSGQEKQIADEIEDALRNLNLPGVEVFRFNNNVLARTNRGLASRVMLAGHIDTVPIADNLPSRVEDGIMYGCGTVDMKSGLAVYLHTFATLATSTELKHDLTLIAYECEEVADHLNGLGHIRDEHPEWLAADLALLGEPTGGWIEAGCQGNLRIKVTAHGVRAHSARSWLGDNAMHKLSPIISKVAAYKAAEVNIDGLTYREGLNIVFCESGVANNVIPDLAWMNLNFRFAPNRDLNEAIEHVVETLELDGQDGIEWAVEDGAGGALPGLGQQVTSGLIDAVGREKIRAKFGWTDVSRFSAMGIPALNFGAGDPSFAHKRDEQCPVEQITDVAAILKQYLSE”, the protein production is reported as “not failed”.
With “QKIEKQYDADLEQILIQWITTQCRKDVGRPQPGRENFQNWLKDGTVLCELINALYPEGQAPVKKIQASTMAFKQMEQISQFLQAAERYGINTTDIFQTVDLWEGKNMACVQRTLMNLGGLAVARDDGLFSGDPNWFPKKSKE” the protein production was “not failed”.
In the case of “MDLGPEQIFGAPCRKCKEKCEGFELHFWKKTCRNCKCGQEEHGILLSTEEDRKVGRIIEDGKDTNQIAKLKADEIPMDKTSETVLNKPEPEKKDDFTKTVSYEWVPSVQNKALTRQYMQMLPKEKQPVSGSEGAQYRKKQLAKQLPAHDQDPNKCHELSRKEAKEMRQFVKKYKNEALGVGDVRLPSEMNVQHYKGHNPATDRNTPTAVDFKDTSMEPKKPQYSCYSCKHAVKEGNPAIFAERAGYDKLWHPACFICTICGEILVDMIYFWKNGKLYCGRHYCDSEKPRCAGCDELIFSNEYTQAENKNWHLIHFCCFHCHNVLAGKIYVMVGSKPVCKSCYMKIHAVVCQGCHNAIDPEEQRVIYQNFSWHASTACFLCSCCSKCLLGKKFIRVEGMIFCSIECKNMMS”, the protein production is reported as “failed”.
With “MIITIANEKGGSGKSTLCLNLCVQLLLDKKDIAALDTDSQKSLEVFNNIRSETSLPNFTLFNRTGNITDTLKQMMDKYEYILIDTKGEHSKESQRAMLLSDWVLIPTTPSQLDTAVLLDMLERIRDIQALNENLKACIVMNRIPTIPTLKEKKALIDFINQNNANESVFLMDNLLSERIAYKRSVSEGMGVMEYNDNKAKNEWSQFYDELNGYLRIKK” the protein production was “failed”.
For “MKIRSADASDLDSLLRLNYQIGVMHFENAPESFVKPSSEEKEFLLKALNDQSRLFLVAEISGDVVGFVTATVTQNEAIPFLVKTPICRVGTIVVDENARVSGIGTQLMARCNDWAKSQGAEQIRLEVMAFNKSAQSFYVKLGFEEQSKTMWKTVN”, the protein production was “failed”.
In the case of “MFVAFNFNKIESITTEKEFKIILNDQIALGKIPDFSKIKITIKVNKDDLKYLDLNKIILFIEASSIKIPGSYKLPIKIKNLNSIHIAEYKLSKTNVLLNLDNKVSKLVKIEPKFKLEHHHHHH”, the protein production is reported as “failed”.
In the case of “MKYDVVVVGSGVAGPIVARDVAKAGFSVLLVDKKPAIGTPKQCAEGINVNVFKEFDIPYDKRFINREIYGARIYSPSGYTAELRYDKVSGVILERKVFDKMLAYYAAKAGADVWARTEVIDLLRKEGKIMGVKAKHEGELVEIEAKIIVAADGVESTVARLAGINTYAPPHEFDSAYEYEMIIEGYDPDLIHLWFGNEIAPRGYVWVFPKDEDRANVGIGINSDNEKTAKYYLDKWLKENNIPTKKILEINVGLVPVGGFVRELVKENVAVVGDAARQVNPVHGGGMYEAMKAANILAKWIVKALEEENLELLKNYTKEWWEVEGPKMERLLKLRRAMEKLTDEDIDVFVQLLGGTDLEKLAGGNYFEVVKALMKHPKVLMSKRRLEILKALL”, the protein production is reported as “not failed”.
In the case of “MLKSGRLNFLKLNINSRLLYSTNPQLTKKVIGIDLGTTNSAVAYIRDSNDKKSATIIENDEGQRTTPSIVAFDVKSSPQNKDQMKTLVGMAAKRQNAINSENTFFATKRLIGRAFNDKEVQRDMAVMPYKIVKCESNGQAYLSTSNGLIQSPSQIASILLKYLKQTSEEYLGEKVNLAVITVPAYFNDSQRQATKDAGKLAGLNVLRVINEPTAAALSFGIDDKRNNGLIAVYDLGGGTFDISILDIEDGVFEVRATNGDTHLGGEDFDNVIVNYIIDTFIHENPEITREEITKNRETMQRLKDVSERAKIDLSHVKKTFIELPFVYKSKHLRVPMTEEELDNMTLSLINRTIPPVKQALKDADIEPEDIDEVILVGGMTRMPKIRSVVKDLFGKSPNSSVNPDETVALGAAIQGGILSGEIKNVLLLDVTPLTLGIETFGGAFSPLIPRNTT”, the protein production is reported as “failed”.
With “MKKLLLSLTLTVLLGLLGRPAIAANYEIKLVDEGVFAAIALPEGKAASNALIIITPHQVILAGAHFVPEGIKELIADIAEITPLPLRSVILTHHHKGFNYVDFDFPANVEIITSWQTWQALKAETRPLRNPVTFFEKGLTLLRSNTTIVLSSADFGHTEGDVFLFLPNEGILFASDLFYNDVVGYMGEGHMRDWVITLETLEAVGAQYVVPGLGQVTDRSGLRRFRLFFKDFLTEVLRHMEAGKTLAETKKLFRLPAHEGMPGYKAFLDVNLDRAYQDLRDQ” the protein production was “failed”.
For “MDTSRLRPTSPLVRQAAACLDAGEADHADVLLDLHLSRHPEDSAGLILFGLTRVALGRPLEAEQPLRRALALDPIDDPFHARAVCALVDVLKAQGRMAEVSEVLERAGDVAPMNAVFPRMLGAHYRALGQVGAAITAARRAVAVESADGENWRGLAATLLGGAPGEALEALERAKTCGDDGADWWNIRGVALAALGEGEAAREAFKNAILRDGAAPMAWTNLGNLEIRAARSADALERAVEAYGQAIRRAPDSFEAHNNLAQALRDLGRRDEALVHAERAASLRPHDVTVLNTQANILRGLRRVDEAVAILERALACDGRSAETHSNLGLALLAAQDRQRAEEHFRKAAALAPDCVDIIVNLACFLIHINAGKEVLGVLEPALARFPGDVGLLATLGLHYFQENAYEDCATVFETVLAKKPDHVEARASLGVVRWSQGRLVESLALAQSIREDFPEDIRTLFLLGCVHSDLMENASALEVFDLAVEKGGERVPPFHYSNCCFSFHYVEAMEKDDLFARHRRWDALYGAGATELSDVTHHNTRDPERRLRIGYVSPDFRRHSVAYFFLPLVGAHDRAAVEVTCYSLSTLTDQMTDLIREGCDRWRDITTLPAEKAAERVREDEIDILVDLSGHTANNGLSIFALKPAPVQVTYLGYPNTTGLSAIDYRLTDGFADPLGVDEDPASETLWRLPRSFLLFDEVPGLPDPAPPPVLSRGTITFGSFNNMAKVNRGCVAVWKRILDAVPGSRLLLKAKGFRDPATAKVLIERLIDWGVDPEQVSYAPYAKNLMEHVAVYAEVDIALDTFPYNGTTTTFEALHMGVPVIGLRGHRHSGRVGASILGNLGLADRLLGEDVDDMVAKAVALAGDLEGLMRMRAGLRERLRASPLQDGPGFVADLEGAYRAMWRRWCAGPPTFHRQPKNGMWAVEEMEDAIEPVLG”, the protein production was “failed”.
With “MKKIVILIISVLLLGGIIGGVYYFKNANKIGADASYVKITKDPTKSNEISFNNNYTLPAYDENGKETEVTFSADKELRKGAYLKLYIKEDKGVTSFEEVPEKEVPAKAAEKLKLEHHHHHH” the protein production was “failed”.
In the case of “MFKGDMNKKRAKALQKVKEAITLHGGQTILSTGITGDDARLAKAVCEAGVKLLEPNHPALALARGHKGVSNMHAAEQIRHEITNSQMAEAVHGVRNVVPDDIFITVGIAGGFTETLPVPLSEKEILEIARAGADGLHTHKSDWDDLQDIVNLAHQYGLTVDAYIGHPDDLHTFGIPARTPEEVASVAKRMQDIGVDMIGLMTGMSYEGVAAGDIPQMIKDRLRALVGAVDVPTLAEGGINLANAKAFKDTGVNILVVGTAIDNMVCNAAKEAVTPFIVH”, the protein production is reported as “not failed”.
In the case of “MEPKVTIHRYYSRQAKYEGAVEADLELCIKHCGGDVVRIELVNRLHGIQLQRKLRRLLLLMFLSIAYFVGTCGFDNRTISFLQPRILYPLITCASVAILLIRSTLNLVQAERLFYSWDMALQMETVRSFGRESVLCVQRGHIEDIVLNEVIEDLDVKYMLILRTKGSQFKKRPIIPLFNSQSPSIECLQHTYHVLHKYWLNSTKDRSEESYSKDKQSLVNS”, the protein production is reported as “failed”.
In the case of “MGHHHHHHSHMATSRYEPVAEIGVGAYGTVYKARDPHSGHFVALKSVRVPNGGGGGGGLPISTVREVALLRRLEAFEHPNVVRLMDVCATSRTDREIKVTLVFEHVDQDLRTYLDKAPPPGLPAETIKDLMRQFLRGLDFLHANCIVHRDLKPENILVTSGGTVKLADFGLARIYSYQMALTPVVVTLWYRAPEVLLQSTYATPVDMWSVGCIFAEMFRRKPLFCGNSEADQLGKIFDLIGLPPEDDWPRDVSLPRGAFPPRGPRPVQSVVPEMEESGAQLLLEMLTFNPHKRISAFRALQHSYLHK”, the protein production is reported as “failed”.
In the case of “MKNVKFIKKSESVIGLWLPILVILILFAFLVAESVIMKDIILSNSVVALATAIMASAALVTILVSNRQVQLMARQQRLKAIEDRLEKFYIPLIKAFSSYVYTAQTEDEIETIITCRRYLAGNNLLRVLPMHFKFKADKIAGSANWTFYAKEDFEQWKEALDVLWEEFLEVLKEYYTLSGTEISLPEKPDWLIGYK”, the protein production is reported as “failed”.
For “MSLEGIKQINFQSINVVENLEEAKEGIPTIIMFKTDTCPYCVEMQKELSYVSKEREGKFNIYYARLEEEKNIDLAYKYDANIVPTTVFLDKEGNKFYVHQGLMRKNNIETILNSLGVKEGHHHHHH”, the protein production was “not failed”.
In the case of “MNSIWKQYIDILQGVVKPALGCTEPICAAYAASVATQMLGSKPETIDVFVSDNLYKNSMGVFVPRTGRVGLAIAAATGAIGGNPDAGLEVLAKITEEEVDEAQKLIDNGCVVVQRETTDEFIYCRVIAKNAVHNAEVTISGGHTLIIEKRLDDNVIFTLDSSLPKTSTASICDGVDITISSIYDFATQAEFDDIKFILEAKELNIALAQEGLNNPYGLEVGRTYQKNIEKGLLAKSLDSDILIYTSAASDARMGGATLPAMSNYGSGNQGIAATIPVVKMADFFNADDEKLARAFIMSHLGAIYIKSHYPPLSAFCGNAVTSAAASMAMVYLAGGTFEQSCSAIQNTISDTSGMICDGAKSTCAMKVGSSAQSAMKSALLALNDHCVTKQGVIADDVEKTIKNIGRMITTGMPNIDHEIIEIMAS”, the protein production is reported as “failed”.
In the case of “MSSKPLLTLQELAAQNILRNEALAISALQYLPELFLPQLLKQAYDGNHLKVLRAIVSSWPFPRLPLGALKKRTPYLETQLQVVLEEVDKLLIQEVHPREYKLEVLDLRSVGQNYLNVWPGAMDDWLPKTTQTDPCCSKTVMTQPLKVLVDLQLNNRGQSRLFSYLVQWSDRRKGLLQLYCNKLQIWSPSQQNYRKLSQKVNLDYVETLGLHSSCSPSFLLNFAPYLRQMRNLRKLALSNIREEHIISPEKRRCIITRFTLQILKLESLQKLHLDAVCFLEGHLDQLLGSVKTSLDELAVTHCNLSVSEWSHFSEFPCVSQLQQLNLENVRLTGLSPEPLQVLLVKAGPTLVALDLEDCHLEDGQLYAILPALSKCFKLTKFSFYGNQISMLAMKDLLHHTASLIHLRLELYPVPQDSYDYHGTPLMQRMQQHCDELMNLLKTFRNPGRVFFGTDRCDQCCNRYIYNKTIMCNCRRSY”, the protein production is reported as “failed”.
For “ETEDQTNMIAIQADGCYIVDALTPIEDFNERFNAEFPDDDYDTIGGLVTEAIGHLPETGDELTIGRFAFRVAKANARRIHILHVTVLP”, the protein production was “not failed”.
